Reference: patent US11913033B2, “Luciferases and methods for using same” (LIGHT BIO, INC., priority 2017, dated 2024)

Columns and labels:
[1] = tested on: fungal luciferases; assay: Bioluminescence spectra of lysed transfected HEK293N cells with 3-hydroxyhispidin or analogs; assay type: biochemical; conditions: luciferin 660 μg/ml, pH 8.0, cell lysate
Procedure: Plasmids comprising coding sequences of fungal luciferases necessary for expression in mammalian cells were obtained as described in Example 3 and used for the transfection of HEK293N cells. 24 hours after the transfection procedure, the cells were detached from dishes using trypsin-Versen solution (0.025% trypsin), the medium was substituted with a phosphate saline buffer, pH 8.0, by centrifugation, the cells were resuspended and lysed using ultrasound; 3-hydroxyhispidin or one of analogs thereof ((E)-6-(4-diethylamino)styryl)-3,4-dihydroxy-2H-pyran-2-one, (E)-3,4-dihydroxy-6-(4-hydroxystyryl)-2H-pyran-2-one, E)-6-(2-1H-indol-3-yl)vinyl)-3,4-dihydroxy-2H-pyran-2-one, (E)-6-(2-(1,2,3,5,6,7-hexahydropyrido[3,2,1-ij]quinoline-9-yl)vinyl)-3,4-dihydroxy-2H-pyran-2-one and (E)-3,4-dihydroxy-6-(2-(6-hydroxynaphthalene-2-yl)vinyl)-2H-pyran-2-one) at a concentration of 660 μg/ml was added to the medium.
Varian Cary Eclipse spectrofluorimeter was used to detect bioluminescence spectra. All the samples emitted light with all examined luciferins.

[2] = tested on: CT26 cells (Mus musculus carcinoma cells); assay: Labelling of implanted tumour cells in a living mouse, IVIS imaging; assay type: in vivo; conditions: subcutaneous CT26 cells; luciferin mixture 0.5 mg each intraperitoneally
Procedure: Vector containing the coding sequence of luciferase from Neonothopanus nambi under the control of a cytomegaloviral promoter was obtained as described in Example 3. In addition, a humanized nucleotide sequence encoding luciferase from Photinus pyralis firefly was synthesized and cloned into the same vector.
The obtained constructs were used to transfect CT26 cells (Mus musculus carcinoma cells). The cells expressing luciferase from Neonothopanus nambi were injected subcutaneously into the left half of a mouse's back, while cells expressing luciferase of Photinus pyralis were injected in the same manner into the right half of a mouse's back. 10 minutes after injection, a mixture of fungal luciferin (0.5 mg) and Photinus pyralis firefly luciferin (0.5 mg) was injected intraperitoneally. Bioluminescence of the mouse was then visualized using IVIS Spectrum CT (PerkinElmer).

[3] = tested on: cells of HEK293NT line; assay: Cell labelling: luciferase co-transfected into HEK293NT cells, microscopy; assay type: cell-based, human
Procedure: Vector containing luciferase from Neonothopanus nambi under the control of a cytomegaloviral promoter obtained as described in Example 3 was co-transfected with pTurboFP635-N vector (Evrogen, Russia) encoding the red fluorescent protein, into the cells of HEK293NT line. Transfection was performed using FuGENE HD transfection reagent (Promega) according to the protocol recommended by the manufacturer. 24 hours after the transfection procedure, 3-hydroxyhispidin was added to the medium up to a final concentration of 660 μg/ml; and cell luminescence was analysed using Leica DM6000 microscope with a 20× objective. The cells were visualized in transmitted light, in the green and red channels for detecting fluorescence (FIG. 6).

[4] = Bioluminescence spectrum of luciferase expressed in Pichia pastoris, supernatant plus 3-hydroxyhispidin; assay type: biochemical; conditions: 3-hydroxyhispidin (25 μM) in 1% DDM
Procedure: In order to analyse the bioluminescence of expressed luciferase, Pichia pastoris colonies in which luminescence was observed were isolated and grown in 750 ml flasks filled with 250 ml of YPD medium for 72 hours at 30° C. and stirred at 200 rpm. Luciferase-expressing cells were then pelleted by centrifugation at 5000 g for 15 minutes at 4° C. The obtained pellet was resuspended in a 0.1 M phosphate buffer, pH 7.4, comprising 0.1% DDM for two hours at 4° C. The suspension was centrifuged at 21000 g for 30 min at 4° C. The bioluminescence reaction was activated by adding 750 μl of the obtained supernatant to 250 μl of the solution of 3-hydroxyhispidin (25 μM) in 1% DDM. Varian Cary Eclipse spectrofluorimeter was used to detect bioluminescence.

[5] = tested on: HEK293NT and HeLa cells; assay: Luminescence of mammalian cells transfected with humanized luciferases after adding 3-hydroxyhispidin; assay type: cell-based; conditions: 3-hydroxyhispidin 660 μg/ml, 24 hours after transfection
Source text: Coding sequences of luciferases obtained as shown in examples 1 and 2 were optimized (humanized) for expression in mammalian cells. Humanized nucleic acids were obtained by oligonucleotide synthesis using standard techniques. The nucleotide profile of humanized nucleic acids is shown in SEQ ID NOs: 44-51, the amino acid profile of the corresponding proteins is identical to wild-type proteins shown in SEQ ID NOs: 2, 4, 6, 8, 10, 12, 14, 16. The obtained nucleic acids were cloned into pmKate2-keratin vector (Evrogen, Russia) using NheI and NotI restriction sites instead of a sequence encoding mKate2-keratin fusion protein. Plasmid DNA was purified and transfected into HEK293NT and HeLa cells using FuGENE HD Transfection Reagent (Promega, USA) according to the manufacturer's protocol. 24 hours after the transfection procedure, 3-hydroxyhispidin at a concentration of 660 μg/ml was added to the medium, and cell luminescence was detected using IVIS Spectrum CT (PerkinElmer). Intensity of light emission of all samples was by an order of magnitude and greater than the signal coming from the non-transfected control cells (FIG. 2). […]

[6] = Bioluminescence of isolated recombinant luciferase fragments from E. coli with 3-hydroxyhispidin; assay type: biochemical; conditions: 3-hydroxyhispidin added
Procedure: Sequence SEQ ID No: 52 was operably linked to the 5′ end of the nucleic acids encoding functional fragments of luciferases (SEQ ID NOs: 19, 21, 23, 25, 27, 29, 31, 33); the obtained constructs were cloned into pET-23 vector using BamHI and HindIII restriction endonucleases. The vector was used to transform Escherichia coli cells of BL21-CodonPlus strain (the derivative of Stratagene BL21-Gold high-yield strain) The cells were plated on Petri dishes containing LB medium comprising 1.5% agar, 100 μg/ml of ampicillin and 100 μg/ml of chloramphenicol, and incubated overnight at 37° C. Escherichia coli colonies were then transferred to 4 ml of liquid LB medium supplemented with ampicillin and chloramphenicol and incubated overnight at 37° C., with rocking. 1 ml of the overnight culture was transferred to 100 ml of Overnight Express Autoinduction medium (Novagen) containing preliminary added ampicillin and chloramphenicol. The culture was grown at 37° C. for 2.5 hours until it reached an optical density of 0.6 OE at 600 nm, and then it was grown at room temperature for 16 hours. The cells were then pelleted by centrifugation at 4500 rpm for 20 minutes in Eppendorf 5810R centrifuge, resuspended in 35 ml of buffer (50 mM Tris HCl, pH 8.0, 150 mM NaCl) and sonicated. […]

In the case of `O=c1oc(/C=C/c2ccc3cc(O)ccc3c2)cc(O)c1O` [(E)-3,4-dihydroxy-6-(2-(6-hydroxynaphthalene-2-yl)vinyl)-2H-pyran-2-one], the luminescence optimum displacement [1] is reported as “shift to the long-wavelength region” and the “wavelength of significantly emitted photons” value [1] is reported as “more than 580 nm”.

For `O=c1oc(/C=C/c2c[nH]c3ccccc23)cc(O)c1O` [(E)-6-(2-1H-indol-3-yl)vinyl)-3,4-dihydroxy-2H-pyran-2-one], the luminescence optimum displacement [1] was “shift to the short-wavelength region”.

For “luciferase from Photinus pyralis: firefly luciferase from Photinus pyralis, humanized sequence, comparison in mouse tumour labelling [reference compound]”, the “intensity of light emission of tumour” value [2] was 21000000 cu.

B1: luciferase from Neonothopanus nambi: fungal luciferase from Neonothopanus nambi oxidizing 3-hydroxyhispidin with emission of light (protein, listed as Neonothopanus nambi)
chain: MRINISLSSLFERLSKLSSRSIAITCGVVLASAIAFPIIRRDYQTFLEVGPSYAPQNFRGYIIVCVLSLFRQEQKGLAIYDRLPEKRRWLADLPFREGTRPSITSHIIQRQRTQLVDQEFATRELIDKVIPRVQARHTDKTFLSTSKFEFHAKAIFLLPSIPINDPLNIPSHDTVRRTKREIAHMHDYHDCTLHLALAAQDGKEVLKKGWGQRHPLAGPGVPGPPTEWTFLYAPRNEEEARVVEMIVEASIGYMTNDPAGKIVENAK
With B1 the “intensity of light emission of tumour” value [2] was 20000000 cu, the “light signal of expressing cells” value ([3]; 3-hydroxyhispidin 660 μg/ml, 24 hours after transfection) was “distinct light signal in the green region of the spectrum” and the “toxicity of luciferase expression to the cells” value ([3]; HEK293NT cells) was “No signs of toxicity”. The “bioluminescence spectrum compared with Neonothopanus nambi mycelium bioluminescence” value [4] was “substantially identical”.

B2: SEQ ID No:51 with the replacement of valine with isoleucine at position 146: Panellus stipticus luciferase variant with valine replaced by isoleucine at position 146 (protein, listed as Panellus stipticus)
chain: MNINLKALIGVCAVLITAAVFPFVRKDYHTFLEGGPSYAPQNLQGYIIVLVLSLFRGEETGLEIYDRLPEKRRWLEELPVREGPRPKTTSHIIQRQLNQHVDPDFGMNSLKGSVIRRLQSRHQDITQLALSKFEFHAEAIFLRPDIAINDPKHVPSHDTVRRTKREIAHMHDYHDYTCHLALAAQDGKQVIAKGWGQRHPLAGPGMPGPPTEWTFLYAPRNEAEVQVLETIIEASIGYMSNAPALGGSE
In the case of B2, the “oxidation of 3-hydroxyhispidin in a bioluminescent reaction” value [5] is reported as “capable of the oxidation of 3-hydroxyhispidin”.

B3: functional fragment of luciferase from Neonothopanus nambi: recombinant Neonothopanus nambi luciferase with N-terminal transmembrane domain removed, expressed in E. coli (protein)
chain: IIRRDYQTFLEVGPSYAPQNFRGYIIVCVLSLFRQEQKGLAIYDRLPEKRRWLADLPFREGTRPSITSHIIQRQRTQLVDQEFATRELIDKVIPRVQARHTDKTFLSTSKFEFHAKAIFLLPSIPINDPLNIPSHDTVRRTKREIAHMHDYHDCTLHLALAAQDGKEVLKKGWGQRHPLAGPGVPGPPTEWTFLYAPRNEEEARVVEMIVEASIGYMTNDPAGKIVENAK
modifications: Amino acid sequence of the functional fragment of luciferase from Neonothopanus nambi
notes: recombinant Neonothopanus nambi luciferase with N-terminal transmembrane domain removed, expressed in E. coli
For B3, the “intensity of emitted light, rank among recombinant functional fragments” value [6] was “highest intensity”.

B4: functional fragment of luciferase from Omphalotus olearius: recombinant Omphalotus olearius luciferase with N-terminal transmembrane domain removed, expressed in E. coli (protein)
chain: FIRKDYQTFLEVGPSYAPQNLQGYIIVCVLSLFRQEQKDVAIYDRLPEKRRWLGDLPFREGPRPSITSHIIQRQRTQLADAEFATKELIGKIIPRVQARHTNTTFLSTSKFEFHAQAIFLLPSIPINDPQNIPSHDTVRRTKREIAHMHDYHDCTLHLALAAQDGKEVLEKGWGQRHPLAGPGVPGPPTEWTFLYAPRSEEEVRVVEMIVEASVVYMTNDPADKIVEATVQGTEE
modifications: Amino acid sequence of the functional fragment of luciferase from Omphalotus olearius
notes: recombinant Omphalotus olearius luciferase with N-terminal transmembrane domain removed, expressed in E. coli
For B4, the “intensity of emitted light, rank among recombinant functional fragments” value [6] was “lowest intensity”.
